Laboratory results as given in PMC12246119 (Nature Communications, 2025).

What was measured:
Crm1 = target: T1, Crm1 (human, UniProt O14980 1-1071); assay: cryo-EM structure; purified RanBP2^RBD4/SUMO1^Q94P-RanGAP1/Ubc9 incubated with excess Crm1 and Ran^Q69L(GTP), gel filtration in 20 mM HEPES pH 7.4, 110 mM potassium acetate, 2 mM magnesium acetate, 1 mM TCEP; lightly crosslinked with 250 µM BS3; 0.1% CHAPSO; 9.7 mg/mL; conditions: both partners purified
T1 construct: Crm1 (exportin), human, full length, wild type; also called exportin Crm1; source: E. coli BL21(DE3) SoluBL21 with Codon Plus (RIL) plasmid, purified (Ni-NTA, Ulp1 cleavage, Superdex 200, MonoQ); not shown: His6, N-terminal, cleaved; Smt3, N-terminal, cleaved

Ran^Q69L(GTP) = Ran^Q69L(GTP) (human, UniProt P62826 1-216, Q69L); assay: as above; conditions: both partners purified

T1 sequence (O14980 whole entry): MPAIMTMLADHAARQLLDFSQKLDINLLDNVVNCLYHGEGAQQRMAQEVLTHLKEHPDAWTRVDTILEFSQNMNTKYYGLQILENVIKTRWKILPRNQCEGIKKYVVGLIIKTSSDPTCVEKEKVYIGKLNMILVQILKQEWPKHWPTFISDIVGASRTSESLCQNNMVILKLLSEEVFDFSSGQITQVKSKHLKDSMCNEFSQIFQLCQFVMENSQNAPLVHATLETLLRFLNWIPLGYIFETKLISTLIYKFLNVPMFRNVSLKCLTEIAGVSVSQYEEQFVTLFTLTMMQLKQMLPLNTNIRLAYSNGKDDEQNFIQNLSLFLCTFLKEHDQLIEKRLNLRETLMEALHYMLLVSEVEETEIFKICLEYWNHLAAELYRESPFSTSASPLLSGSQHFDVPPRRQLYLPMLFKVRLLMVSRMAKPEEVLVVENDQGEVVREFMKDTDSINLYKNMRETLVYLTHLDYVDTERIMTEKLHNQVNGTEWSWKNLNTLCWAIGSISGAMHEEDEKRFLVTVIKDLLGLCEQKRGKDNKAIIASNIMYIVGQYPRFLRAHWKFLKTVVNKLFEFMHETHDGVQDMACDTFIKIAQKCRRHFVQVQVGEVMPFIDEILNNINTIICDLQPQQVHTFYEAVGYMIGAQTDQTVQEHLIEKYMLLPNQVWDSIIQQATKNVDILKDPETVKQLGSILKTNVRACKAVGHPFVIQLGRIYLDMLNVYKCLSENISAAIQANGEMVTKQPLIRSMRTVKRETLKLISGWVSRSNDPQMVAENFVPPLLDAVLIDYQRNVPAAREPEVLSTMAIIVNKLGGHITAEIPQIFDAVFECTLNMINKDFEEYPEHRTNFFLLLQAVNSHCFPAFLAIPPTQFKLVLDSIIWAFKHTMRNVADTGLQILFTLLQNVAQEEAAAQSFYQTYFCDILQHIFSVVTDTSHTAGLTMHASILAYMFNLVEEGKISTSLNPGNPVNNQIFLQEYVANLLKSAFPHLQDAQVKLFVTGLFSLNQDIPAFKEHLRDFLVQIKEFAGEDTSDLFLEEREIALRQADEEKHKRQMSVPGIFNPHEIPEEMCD

B1: RanBP2^2446-3060 (RanBP2^RBD4) (domain or fragment, human, UniProt P49792 2446-3060, looked up)
chain: DSLITPHVSRSSTPRESPCGKIAVAVLEETTRERTDVIQGDDVADATSEVEVSSTSETTPKAVVSPPKFVFGSESVKSIFSSEKSKPFAFGNSSATGSLFGFSFNAPLKSNNSETSSVAQSGSESKVEPKKCELSKNSDIEQSSDSKVKNLFASFPTEESSINYTFKTPEKAKEKKKPEDSPSDDDVLIVYELTPTAEQKALATKLKLPPTFFCYKNRPDYVSEEEEDDEDFETAVKKLNGKLYLDGSEKCRPLEENTADNEKECIIVWEKKPTVEEKAKADTLKLPPTFFCGVCSDTDEDNGNGEDFQSELQKVQEAQKSQTEEITSTTDSVYTGGTEVMVPSFCKSEEPDSITKSISSPSVSSETMDKPVDLSTRKEIDTDSTSQGESKIVSFGFGSSTGLSFADLASSNSGDFAFGSKDKNFQWANTGAAVFGTQSVGTQSAGKVGEDEDGSDEEVVHNEDIHFEPIVSLPEVEVKSGEEDEEILFKERAKLYRWDRDVSQWKERGVGDIKILWHTMKNYYRILMRRDQVFKVCANHVITKTMELKPLNVSNNALVWTASDYADGEAKVEQLAVRFKTKEVADCFKKTFEECQQNLMKLQKGHVSLAAELSK
notes: RanBP2 (Nup358), human, residues 2446-3060: FG1, IR1-M-IR2, FG2 and RBD4; also called RanBP2 FG1-IR1-M-IR2-FG2-RBD4 fragment; hRanBP2^RBD4; source: E. coli BL21(DE3) Codon Plus (RIL), purified (Ni-NTA, Superdex 200)
B1: binds (Crm1); binds (Ran^Q69L(GTP)).
